The source of these data is the DeepSol protein solubility set.

The nature of the data set: soluble on expression in E. coli; label from the status in PepcDB or PDB records.
Regarding “MAHHHHHHMGTVSPARRVASPGKGKRSPSRGETPSEGRTRRAGSSPSSRPGMQTASQRAARKKEVRRLRDAELLLDEAPLSMVGERAQDALEAMLRALDIRRNASATPKKMQPVWHHVKALVVTANREGLRRAYAAFPAEEGHYFFGKALSTLEYSASTVNTAADGGEFAECPLLLSHLMEATLNNIAFQQYIAHEPPEAILKTLQRALKVQHHQAFRTLTLYNMAVAFLAARRYEDATEFVARCSQVAEVCLELEVSLTREISSLYKEYHTMVATHAIMCHHLLAGLAAWSGESDMEVYHAQLALCCATKFLCRG”, the “soluble on expression in E. coli” value is on record as “not soluble”.
Next, “MSLQAANLRQSRSMTLGLIVTEIINPYFAELAMAVDQIAHDAGYTIFIGYSRDHADRQHEIISSMIERQVDGILLLPAPDTDPEKLAKQVNAAGVPVVLLARRFAGFDYVGSENVKGATILGDHLSALGCRSVAFLGGLTASSLAEREEGLRASLEPRGCDVWSVDEFRSPITPEGGVAAVGRLFDQGKLPDAIIAYNDAVAQGIYDEMRRRGLEPGRDLAVASFDDTRIAASQVPPMTSVAGFPQEIGAKGAEMLMTRLADGNEDIPTQLTLIQPQLKIRSSTATWRREGHHHHHH”: “soluble”; “AHHHHHHGSILDVRGLKPPQPTLMILENLGKLKIGETLEVLGDKPFVDIIPKLEEAGYQVELNKVGEFFVLKVTKTEGSKELKMEVEECDEELKEITEDTNVAKLLKAYPESLDILVKYGFSPLQNPVLRKTLARTVTLKQAKKLIGMSDERFEEMMKELKKLEKR”: “soluble”.
Next, “MSKTFRVSKVTSGNSKAIQQTKPITILLMGVDTGSKGRKETWEGNSDTMILVTVNPKTKRTTMTSLERDLLADVEGSGEAKLNSAYAEGGADLAISTIQKVLDIDIDYYALINMHGMIDLVDAVGGIEVTNHFDFPISIAENEPEFQAKVEPGTHKINGEQALVYSRMRYDDPDGDYGRQKRQREVIQKIVAKLLKMDSIGSYKKILSAVSSNVQTSINLGDSTTLRGLMGYSEALKNIKSYQLAGSDAMINGGSYQVASTEDILKVQNRIKKEVGKKGVSESKLKTSLVLNDFGTSSYVSDDFVNSTGSYEAGPSEATGGGSVSTYYGGTTYGNSYTENTSNYVQDQATTAPTINYNGSGVTTYNLVPAAQLEHHHHHH”: “soluble”; “MGSDKIHHHHHHMFKDYQPKKGFDEYFSSDDFLPRSSLEPLLTSLGEMGLHQLNISHEIARKLLLRHGATFRLNDSGSKGSERILPFDPLPRVIGSLEWLGLERGLIQRLEAIDLFLADVYGKQQIINDGIIPRDFIESSDGWRPQMKGFVLPLGKWCHVSGLDLIRDGNGEWLVLEDNLRCPSGVAYFLENRLVMKRIFPSLFNGRVVRPIEDYPSYLLKSLQELAVWTDTPKVVLLTPGVFNSAYFEHSYLAQQMGIQLVEGSDLVCQNQNVYLKTTSGIKKVDVIYRRIDDDYLDPKFFRKDSMLGVPGLIDVLKKGRVAIANAPGTGLADDKLIYTFVPEMIRYYLKEEPIINNVKTYVCARSSDLSFVLENLGKLVVKSVSEAGGYGMLIGPHSSQIDIDKFSAKIKANPRNYIAQPTLDLSTVPSLSDGEVYPCHVDLRPYVLRGKNTWVSPGGLTRVALKRDSLIVNSSQGGGCKDTWVVG”: “not soluble”; “MANLFRNLFGHKKSHSKGDEDHENMDRDTSRRSIRAAPSSSSRSMARGARFQDDSMLPPTAAYHTQNASARVRRGPKSCPGEYIEEEAPSSSRSFNVDSFRREPRDQRRRSSNMVQSTSKMTSSSSSRAAPRYQQWETSEYGSENTSPIGYHRHYQHRRHHPEEEEDEEEDEEEVYKKSMRYQDLKKKIRAHYEERLFNYERTQRNDHRQIKELEKEKDDLVKMLLQSNAKLDKEKKKTEYFKRKWQEAEHKIPFGNPIMPQFGFPPATPQFPQMFQFQPNSGGSAQRYSFMGAPMHPISSSNTPTTSGMDTTHGGAGESLVPASDVSYLAPLVPAPPTLPLLELNTSQGPSTSGISQQNPQQSSSSFFHDDDEDQDETKNFRDEEIESPRCHGSTSTLKNDEEAAELSDFLSKSNLTTLEEGKDSGFSTTPDDAKEPEKVAAN”: “not soluble”.
Consider “MGSDKIHHHHHHMSVVIGYYGKNGAVIAGDKRNLLFNGIESNRAKLEEVLYSGEIKNDEELFKKASEFEVTVHINDTREKVKSLGNLLSGEVVSIGKDSKRRRMYLTKEKCAIIDIENDQITNKSVKTGSGIVVFGNRYVKHFVESEIKKHVQKLLKMSAREIRDLFEKILKNIENATLSDTFEYYVVEAGEPEFEKAVNKDLDDLFNYRHDLSIKMAEMQILTMIAEKIVKIGDVGVIKNGTLVLYDEFLAINKICPEPEIYSEIEITGEFIEGDIITIDNESLKVKRTGSPVAVQKIICKK”, for which the “soluble on expression in E. coli” value is reported as “not soluble”.
With “ELKAKILHIPGDELINHNNQILEEYDHSQNTLIVGPNHVNSNIIHALTASEDTLFYKHNGIMPKALLRAMLQDITNSNQSSGGSTITQQLVKNQVLSNKKTYSRKANEIILATRVENLLSKDEIIYTYLNIVPFGHDYNGANITGISSASYSLFGIPAKDLNIAQSAYLIGLLQSPYGY”, the “soluble on expression in E. coli” value was “not soluble”.
Next, “MSLTFEEKLSQMYNEIANEISGMIPVEWEKVYTIAYVDDEGGEVVFNYTKPGSEDLNYYSDIPKDCNVSKDIFKNSWFKVYRMFDELRETFKKEDLEPWTSCEFDFTRKGNLKVSFDYIDWIKLGFGPSGKENYYMYKKFGILPDMEYEMEEIRAVEKYVKEEGHHHHHH”: “soluble”.
Next, “MKHSLPDLPYDYADLEPVISHEIMQLHHQKHHATYVNNLNQIEEKLHEAVSKGNVKEAIALQPALKFNGGGHINHSIFWTNLAKDGGEPSAELLTAIKSDFGSLDNLQKQLSASTVAVQGSGWGWLGYCPKGKILKVATCANQDPLEATTGLVPLFGIDVWEHAYYLQYKNVRPDYVNAIWKIANWKNVSERFAKAQQ”: “soluble”; “MGSSHHHHHHSSGLVPRGSHMAPSRRERERERRREQIIRAAEKAFFARGYDRVTMDEIAEEAEVNKALLYYYFKNKESLFFAVNLYGVRILHSMYRRCLELDTDGYGKVRAMVEALYSFSKEHPDYFRIYCYSGTERFELSESEDAREIVDLRTGMWRLMVEAIMEGMNDGSIRSDLDPVELSIYIHTLAINALNLDFTSRMVLEARNISRDRFWEDLEVFLESALRP”: “soluble”.
Next, “IKDFSYGARFNLSDQKDKLVDYGVEYNGFVAGVNQKVQGYSLGSIFGYRTDGYFTSEEEVKNSAAFNKAITGVGDIKYIDKDGDGKISAPNDLEYLGTTTPRYTFGLNLTAAWKGFDLGVLLQGVGKRNFYLSSEVMNPYYATWNNFSYKMHNDYWTPENPNAAFPRYYAGANHNYQISDHWLQNAAYVRLKNLQLGYTISPKLTKSWGIQRLRVYFSGDNLCEYSKLNDNFDPELSDINGYVYPIMRNFSFGINVTL”: “not soluble”; “RCGAGEPWGNATNLGVPCLHWDEVPPFLERSPPASWAELRGQPHNFCRSPDGAGRPWCFYRNAQGKVDWGYCDCGQG”: “soluble”.
As to “MDNEEYYKILGVAKSASQDEIKHAYRKMSKKYHPDLNHQPGAEDKYKQVQEAYETLGDPQKRAAYDQYGKAGANANNGQGGFGGFQQSGFNFNGQDFGDFSDIFSQMFGGSFNPNAPRKGRDLQYRINLTFEEAVFGKETEIKYVRQESGGNSKEHTVKVTIPAGVETGQQMRLAGQGEAGTHGGPYGDLYVEFIVGKSKDGFERQGANIYLEEPINFVQAALGDKIKVKTVHGDVELTIPAGTQTDTEFRLRGKGAPYVNSSRIGDEYVKVIVQVPKRLNEKEKKALKTYADLRGENVNPQKRRGLFG”, the “soluble on expression in E. coli” value is recorded as “not soluble”.
As for “MSLTQRIDFQTDPSRYRHWRVAYDGEIANLYMDVDEQGGLFPGYELKLNSYDLGVDIELADIVQRMRFEHPEVKVVVMQSGKDRVFCAGANIRMLGGASHAHKVNFCKFTNETRNTYEAAEADSGQKYIAAVKGACAGGGYELALACNYIMLTNDSSSSVALPEVPLLAVLPGTGGLTRVTDKRKVRRDLADVFCSVEEGVRGQRAVDWRLVDEIAPNSKFDEVVQERAREFASASVKPSGLTGIALTPLDRRFAEDGSVTYSTVEVVVEREAGRATLTISGPTDAAPDTVDALQAQGAEAWILRAARELDDAILHLRLNERRIGTLVIQTQGDGAAVAAHEALLLENRDHWLANEILQHWKRVLKRVDMTSRSLVAIVEHGSCFAGPLAELLWAVDRSYMMLEEGHHHHHH”, the entry is “not soluble”.
As for “MGSDKIHHHHHHMSCSHEHESLLVTSPNKSAQAVADALEKHPITFSLPQQFYSDADVFQVEMEQIFYKEWLFVGITGEIPDNGNFITLDIGDNPITVIRDQNGEVRAFHNTCRHRGSKICLVKQGKVPKLVCPYHQWTYELDGNLLFAGTEMGDDFDKNDYGLHKVNCRVAGGYIFVSLSENPTNIDGFFDDLTHYLEPYDLDNCKVAVESTLIEDANWKLVIENNRECYHCSGNHPELLNTLLEWDDTEDPRASDEFKAQVAAKQAMWEAEGIPYKHVSHGHGLRNRIVRMPLLEGTVSMTIDGKAGCKKLMGRIKNPDLGSMRILHLPNSWSHAMGDHLIAFQVIPLGAQKTQVTTKWIVHKDAVEGVDYDVAQLRQVWDATNVQDRTLAENNQKGINSKAYQPGPYSTTFEFGVVNFIDWFSHTMQSNIKASAEKS”, the entry is “not soluble”; as for “GPGSMLGSPSDPPPRDAAGDAAAPVSAASSPSAALPVAAVYSTGSQALQAELHQLRERLRVSDEWNMRLQLQLQELLQLPQNEVQDMRQRMQDPDIAIPLLQCYDAVIHEKTEEVERLRREAVDLQTQLDAFRKDQLDVSNAVRMAEELAKSVQGKAAAEVQRYLEAVRELQEELVRLRIEVTRALDAENIAKQDALRIAERAASLETALEAAKQATSKAEAAREAAERKWTIQEQQAEEQEMGAVVQKAQLQRITQENADKAQELERLRAKMTHALRQASDNHAAHLRIVEERHRMIVEDLRSVNRTQELEVLKLRAQLARCDMTNPSGAGRGTGASSASTSSLRLQSTAELLEAQTRQAQEMELKRLHGEVSALQLQRDDAVRQCEQRTSRLQRDFDQQLQDAQRQLQSAQRSFSEARSRCEELEETKAAQEASLRKARDELRQAQQGGQQYRLSADSSARKLASAQQQLAEASKRFSTLQEEKQSAVRQAHERVSELEANVAQALQEVQSAKERAYAEVEEVQRRYEQLRLQNSKLQDDLREREAALVKKERERSILVAQIGRLEDGLEAHKRQMMESDRRVQQLEQQLIAMRQQQREGFLSLEQVKLQNAQLTRTRDQLAEMLQARSL”, “not soluble”.
With “MGSDKIHHHHHHMLYAYGARVWALPIFTHQVYLDKPTKPGDKTLSLATTGFDFYVGGRAVLMNGNKREMVDITGIEPDKLEIKRSLLNRFDTSTVVYPLRSAVLTDMPQLTRLSDEVATAQIRLQIHEHNGYAADIRHLPTYRGHPVLEPTSEWSEDITAQYLRLIKQLDNGTALPHYLDTAKNAFQLTNHRFLLDSIEAQHKLRQLFYYLRGRQKAIWVASSTSDLTLANDIVGKNLDIELVYYTTCLLKQAGRQDIRIECTDGSVHYRRILAATVSNNQTERLALDGEALNLKREQVAKISFLTLSRLESDTIDWVHHTDTVASVTVSFRGLRDELEV”, the “soluble on expression in E. coli” value was “not soluble”.
Turning to “MKKVKLIGTLDYGKYRYPKNHPLKIPRVSLLLRFKDAMNLIDEKELIKSRPATKEELLLFHTEDYINTLMEAERSQSVPKGAREKYNIGGYENPVSYAMFTGSSLATGSTVQAIEEFLKGNVAFNPAGGMHHAFKSRANGFCYINNPAVGIEYLRKKGFKRILYIDLDAHHCDGVQEAFYDTDQVFVLSLHQSPEYAFPFEKGFLEEIGEGKGKGYNLNIPLPKGLNDNEFLFALEKSLEIVKEVFEPEVYLLQLGTDPLLEDYLSKFNLSNVAFLKAFNIVREVFGEGVYLGGGGYHPYALARAWTLIWCELSGREVPEKLNNKAKELLKSIDFEEFDDEVDRSYMLETLKDPWRGGEVRKEVKDTLEKAKASS”, the “soluble on expression in E. coli” value is on record as “soluble”.
